Assay results as given in US20210047398A1, “ASPROSIN, A FAST-INDUCED GLUCOGENIC PROTEIN HORMONE” (Baylor College of Medicine, priority 2016, published 2021).

Legend:
liver = test: Liver cAMP level and PKA activity after subcutaneous injection; format: in vivo, mice; conditions: single 30 μg dose, 20 minutes
Description: […] Data are represented as the mean±SEM.
Cell Culture. […] Results were normalized to protein content.

[1] = Plasma His-tag sandwich ELISA after subcutaneous injection; format: in vivo, mice; conditions: 30 μg subcutaneous injection
Protocol: FIGS. 22A-22E: Asprosin traffics to the liver in vivo and binds the hepatocyte surface with high affinity in a saturable and competitive manner. (FIG. 22A) SPECT scans were performed 15 minutes after intravenous injection with 150 μCi I125-asprosin, boiled I125-asprosin, or free I125 in live, anesthetized mice previously injected with bismuth as a hepatic contrast agent. 3 representative images are shown in axial and coronal planes. (FIG. 22B) Liver asprosin accumulation was measured as liver photon intensity from mice in (FIG. 22A). (FIG. 22C) Tissue radioactivity (normalized to tissue weight) was measured using a γ-counter after sacrificing mice from (FIG. 22A), 45 minutes following injection (n=4 mice). (FIG. 22D) Sandwich ELISA was used to measure plasma His tag (recombinant asprosin contains an N-terminal His tag) in WT mice before injection and 15, 30, 60 and 120 minutes after injection with 30 μg recombinant asprosin. The time taken for peak signal to fall to half-maximal level is indicated by the arrow. […] Specific binding (shown in red) was calculated as the difference between the two curves. Data are represented as the mean±SEM.
Sandwich ELISA and Western Blot. […] Increasing amounts of recombinant asprosin (which contains an N-terminal His tag) were used to generate a standard curve for both assays. EDTA-plasma was used for plasma sandwich ELISAs and serum-free DMEM concentrated using Vivaspin protein concentrator spin columns by GE Life Sciences Inc. was used for media sandwich ELISAs.

AgRP neurons = test: Whole-cell patch clamp recordings on AgRP neurons; format: cell-based, mice
Protocol: Electrophysiology—Whole-cell patch clamp recordings were performed on identified AgRP neurons or POMC neurons in the brain slices containing the arcuate nucleus of the hypothalamus (ARH). In particular, to identify AgRP neurons, the inventors crossed Rosa26-tdTOMATO allele onto the regular AgRP-Cre mice (Tong et al., 2008) to generate AgRP-Cre/Rosa26-tdTOMATO mice, which express TOMATO selectively in AgRP/NPY neurons. In some studies, the inventors crossed NPY-GFP mice (Pinto et al., 2004) with NPS mice to generate NPY-GFP mice with or without the NPS mutation, and GFP-labelled neurons in the arcuate nucleus were recorded. In order to record POMC neurons, the inventors crossed Rosa26-tdTOMATO allele onto the POMC-CreERT2 mice (Berglund et al., 2013) to generate POMC-CreERT2/Rosa26-tdTOMATO mice, which express TOMATO selectively in mature POMC neurons upon tamoxifen induction (0.2 mg/g, i.p. 6 weeks of age). In some studies, the inventors also crossed the AgRP-DTR allele onto POMC-GFP mice, and these mice received DT or saline injections (described above) to generate mice with or without AgRP neurons ablated.
Six to twelve-week old mice were deeply anesthetized with isoflurane and transcardially perfused with a modified ice-cold sucrose-based cutting solution (pH 7.3) containing 10 mM NaCl, 25 mM NaHCO3, 195 mM Sucrose, 5 mM Glucose, 2.5 mM KCl, 1.25 mM NaH2PO4, 2 mM Na-Pyruvate, 0.5 mM CaCl2, and 7 mM MgCl2, bubbled continuously with 95% O2 and 5% CO2 (Ren et al., 2012). The mice were then decapitated, and the entire brain was removed and immediately submerged in the cutting solution. Slices (250 μm) were cut with a Microm HM 650V vibratome (Thermo Scientific). Three brain slices containing the arcuate nucleus were obtained for each animal (Bregma −2.06 mm to −1.46 mm; Interaural 1.74 mm to 2.34 mm), and recordings were made at levels throughout this brain region. The slices were recovered for 1 h at 34° C. and then maintained at room temperature in artificial cerebrospinal fluid (aCSF, pH 7.3) containing 126 mM NaCl, 2.5 mM KCl, 2.4 mM CaCl2, 1.2 mM NaH2PO4, 1.2 mM MgCl2, 11.1 mM glucose, and 21.4 mM NaHCO3) saturated with 95% O2 and 5% CO2 before recording.
Slices were transferred to a recording chamber and allowed to equilibrate for at least 10 min before recording. The slices were superfused at 34° C. in oxygenated aCSF at a flow rate of 1.8-2 ml/min. GFP or TOMATO-labeled neurons in the ARH were visualized using epifluorescence and IR-DIC imaging on an upright microscope (Eclipse FN-1, Nikon) equipped with a moveable stage (MP-285, Sutter Instrument). Patch pipettes with resistances of 3-5 MΩ were filled with intracellular solution (pH 7.3) containing 128 mM K-Gluconate, 10 mM KCl, 10 mM HEPES, 0.1 mM EGTA, 2 mM MgCl2, 0.05 mM Na-GTP and 0.05 mM Mg-ATP. Recordings were made using a MultiClamp 700B amplifier (Axon Instrument), sampled using Digidata 1440A and analyzed offline with pClamp 10.3 software (Axon Instruments). Series resistance was monitored during the recording, and the values were generally <10 MΩ and were not compensated. The liquid junction potential was +12.5 mV, and was corrected after the experiment. Data were excluded if the series resistance increased dramatically during the experiment or without overshoot for action potential. Currents were amplified, filtered at 1 kHz, and digitized at 20 kHz. Current clamp was engaged to test neural firing frequency and resting membrane potential (RM) at the baseline and puff delivered recombinant Asprosin (500 ms at various concentrations indicated in the figures). For the asprosin antibody pre-incubation experiment, asprosin and anti-asprosin mAB or IgG were gently mixed at a 1:100 ratio, and then kept on ice for one hour before recording. After AgRP or POMC neuron response to asprosin alone was confirmed, the mixture of recombinant asprosin and anti-asprosin mAB or IgG was perfused to treat the AgRP or POMC neurons for 4 minutes. […]

B1: recombinant asprosin: 146 amino acid E. coli expressed fusion protein: 6 amino acid N-terminal His tag and 140 amino acid wild type asprosin (FBN1 2732-2871) (protein)
chain: HHHHHHSTNETDASNIEDQSETEANVSLASWDVEKTAIFAFNISHVSNKVRILELLPALTTLTNHNRYLIESGNEDGFFKINQKEGISYLHFTKKKPVAGTYSLQISSTPLYKKKELNQLEDKYDKDYLSGELGDNLKMKIQVLLH
liver cAMP and protein kinase A activity (liver): sufficient to increase liver cAMP and protein kinase A activity | plasma half-life ([1]; His-tag ELISA): approximately 20 minutes | peak level in plasma ([1]; mice): 50 nM | time of peak level after injection ([1]; mice): 20 min | miniature excitatory post-synaptic current (mEPSC) of AgRP neurons (AgRP neurons): increased the amplitude but not frequency | proportion of AgRP neurons asprosin-responsive (AgRP neurons): about 50% | dose-dependency of AgRP neuron activation (firing frequency, membrane potential) (AgRP neurons; 0.01-100 nM, intact slices): dose-dependent activation | asprosin-mediated activation with synaptic inputs pharmacologically inhibited (AgRP neurons; TTX or TTX + AP-5 + CNQX + bicuculline): no decrease in asprosin-mediated activation | EC50 for AgRP neuron activation (AgRP neurons; firing frequency and membrane potential): nanomolar to subnanomolar range | AgRP neuron firing frequency and membrane potential (AgRP neurons; recombinant asprosin puff): acutely induced their activation
